Source: the supplement of paper PMC9170038

Tested on: K4 kissing-loop RNA reporter
Experiment: apparent KD of K4 kissing-loop reporter; higher = weaker reporter binding
Details: Eterna round: R107
Procedure: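 RNA-MaP round R107: designed RNA switches with theophylline, tryptophan, arginine or FMN aptamers are transcribed on-chip within common flanks. They are titrated with a labelled K4 kissing-loop RNA reporter in RNA-MaP buffer (100 mM Tris pH 7.5, 80 mM KCl, 4 mM MgCl2), without ligand or with the indicated ligand. Median apparent KD per design.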

[1] = input ligand: theophylline 20 uM
[2] = input ligand: tryptophan 2.4 mM
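Further: bound reporter read as fluorescence of individual clusters on recovered sequencing chips by microscopy, with normalized cluster intensities fitted with a binding model.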

Row | Sequence | apparent KD of K4 kissing-loop reporter (input ligand: FMN 200 uM) | apparent KD of K4 kissing-loop reporter (input ligand: arginine 13.2 mM) | apparent KD of K4 kissing-loop reporter (input ligand: none) | apparent KD of K4 kissing-loop reporter [1] | apparent KD of K4 kissing-loop reporter [2]
1 | GUUACGCAUGGAAGGAGCGCACUCCGGUUGAUCAACACAGUGAUGUUGUGGUUCAUUCGAAUGCAGGUAGGUCGCCAUGUGUAAC [Ex Arginine B K4 16] | 877 nM | 724 nM | 1100 nM | 858 nM | 825 nM
2 | AGUGAUAUAUGAGGAUAUGGGUUAAUUAGUGAGUUAUUUUUAGUGUUGUUUGAUUAGUGAUGUUAUUUAGAAGGCGUGAGUGAUG [awwswmjmullin] | 113 nM | 75 nM | 67.5 nM | 130 nM | 61.7 nM
3 | GCGUCUUGGUCGGCCGCCACUGAGCCUAGUCACACUCUUGAGUGAUGUUGAAGAUGGUGGACUUGCAGGACCGGGACCACGGACG [theeternabot_sameState_KL_Trp_B_41] | 946 nM | 612 nM | 590 nM | 569 nM | 450 nM
4 | AGUUCUUGCCGAAGGAGCGAGGCAGAGUGAUGUUCUGCAAGAGGUCGAAAGACCUCUCUGCCUCAGGUAGGUCGCGGCAUGAACA [Omei KL Arginine B Exc A v3] | 517 nM | 239 nM | 483 nM | 356 nM | 535 nM
5 | AGUGAUGUUUCUUUUAAGAGUGAUGUUUUUCGAGGACCGGUACGGCCGCCACUCGAGUGAUGAGUGCGUCGUUGUGGUGAUUAGU [#13 K4 Tryptophan A Exclusion] | 483 nM | 281 nM | 463 nM | 379 nM | 229 nM
6 | AAAGUUGAUGAGUUGGGUAUGUGUUCCGAAGGAGCGAGAAUUAUCUCAGGUAGGUCGCGGAACAUGAGUGAUGUUCAUGUAUAAA [KL-XArg-A7 #analogue] | 345 nM | 436 nM | 365 nM | 423 nM | 340 nM
7 | GGAUCCACCAGUGAUGUUGGAGAAAACUCUAAGGAUAUGACGAAAGUCAGAAGGUGGUAGACUGGGCAAAGUCCGGUCGGAUCCA [FmnA10 U30+G66] | 490 nM | 120 nM | 378 nM | 873 nM | 660 nM
8 | UGAGUUAGACAAAAGUCUAGCUCUGGUGAAGGAGCGUCCGAAAGGACAGGUAGGUCGCACCACCUGAGUGAUGUUCAGAAUCCUU [KL-SSArg-A22] | 670 nM | 506 nM | 789 nM | 762 nM | 468 nM
9 | UGUAUGUGAUUUGAUACCAGACCAGCUGGUGGUAUAUGAGUGAUGUUCAUGUUGGUUUGGGUCCCUUGGCAGCAAAUCGCAUACU [KL-SSTheoB10] | 271 nM | 183 nM | 217 nM | 213 nM | 212 nM
10 | AAAAUUGCGGUCGAAUUAACUUCUUGCAUACGAGGACCGGUACGGCCGCCACUCGAGUCAAGUGAUGUUUGAUAAUCUAUUAUUA [JR_ExcTryptoA_Sub011] | 190 nM | 258 nM | 279 nM | 301 nM | 160 nM
11 | GCAGUGAUGUUGCGCGGGUACGGUGGAGUGCGAGGACCGGUACGGCCGCCACUCGUACGGAACUGGCUAAUAUAUGGAUAGGUGA [VI] | 397 nM | 291 nM | 383 nM | 379 nM | 336 nM
12 | CAUAGGAAACUAUGUAUCUCUCCGACUGAAGGAGCGCGUGAAAACGCAGGUAGGUCGCAGAAUUUAACGGAGAGUGAUGUUCUCU [Ex Arginine A K4 10] | 345 nM | 295 nM | 338 nM | 385 nM | 344 nM
13 | UGACUGGACUGAAGGAGCGCGCGAGACAAAGUCUCGAACUUCUAGUGAUGUUAGAAAAUAACGCAGGUAGGUCGCAGUCUAGUCU | 165 nM | 137 nM | 152 nM | 147 nM | 147 nM
14 | GCCAGAGCGCGAAGGAGCGCCGUGACAGGUUGCUGCCGUGGGCAGUGAUGUUGCUCAGUCCGGCAGGUAGGUCGCGUGCUCUGGC | 422 nM | 434 nM | 548 nM | 433 nM | 372 nM
15 | GGUAGCAUGGCGGCCGCCACUGAGCAAGUGAUGUUUGCCUCCCUACCCUAGUGUCGAGAGUAUAUCAGGACCGGGCCAUGCUACC | 188 nM | 132 nM | 149 nM | 164 nM | 136 nM
16 | ACCCGUAGGAUACGGAGGUGUAAAUGGGUAUAGGAUAUCUAGAAAUAGAGAAGGAUACCAGUGAUGUUGGUUCCGUAUAUCUUAA | 272 nM | 137 nM | 105 nM | 90 nM | 119 nM
17 | AGAAGAUAUCAAGAUACCAGCUCCCGGCCCAAAACCCAGAUACACGAGUGAUGUUCGUUCAGCCCUUGGCAGCUUGCCUAGUUCU [theeternabot_sameState_KL_Theo_B_6] | 94.4 nM | 149 nM | 125 nM | 163 nM | 89.4 nM
18 | GUUACGCAUGGAAGGAGCGCUCUCCGGCUUAAUAACACAGUGAUGUUGUGAAUUUGCCGAAAGCAGGUAGGUCGCCAUGUGUAAC [Ex Arginine B K4 10] | 474 nM | 359 nM | 453 nM | 435 nM | 413 nM
19 | UCCUGUUGUCAGCCACGAAAGUGGAUUGAUACCAGAGUCGAAAGACUCCCUUGGCAGCGAGUGAUGUUCGCAGCAGGUAAAUAAA [MatMod 4 - Jieux - Exclusion - Theophylline A] | 211 nM | 157 nM | 209 nM | 207 nM | 178 nM
20 | UGACUGGACUGAAGGAGCGAGCGAGACAAAGUCUCGAAAUCCUAGUGAUGUUAGGAAAUAACUCAGGUAGGUCGCAGUCUAGUCU [ArgBS 9 #SwitchBubble #StaticStem] | 181 nM | 152 nM | 175 nM | 170 nM | 173 nM
21 | GGAGGAGAGGGAAGGAGCGUGAAAGAGAAAGAAUAUAGUGAUGUUAUAUAGAAGAAAGAAUCACAGGUAGGUCGCCCGGAGGAGG [SSArgB.A] | 331 nM | 556 nM | 684 nM | 446 nM | 483 nM
22 | GUACCUUGGAAACAAGGACAGCUCACCGAAGGAGCGCGUGAAAACGCAGGUAGGUCGCGGUAGCGGAGUGAUGUUCCGCGAGGGC [Same State Arginine A GF 20] | 114 nM | 99.5 nM | 100 nM | 112 nM | 106 nM

Row | Sequence | apparent KD of K4 kissing-loop reporter (input ligand: FMN 200 uM) | apparent KD of K4 kissing-loop reporter (input ligand: arginine 13.2 mM) | apparent KD of K4 kissing-loop reporter (input ligand: none) | apparent KD of K4 kissing-loop reporter [1] | apparent KD of K4 kissing-loop reporter [2]
23 | AUUGUCGGAGUCUGUGCUGACUGACGAGCAAAGGAUAUGUUAUUAAACAGAAGGUUGUGCUGCUUAAGUGAUGUUUUUGGAGCUA [theeternabot_sameState_KL_FMN_A_26] | 308 nM | 190 nM | 239 nM | 228 nM | 216 nM
24 | GGCAUGGUGACGCGGCUGCCAUGCACUUGGGAGGAUAUGUUUCGUGACAGAAGGCCCAGUGAUGUUGGGUCUGUUCAAAAGGACU [Lerere] | 434 nM | 135 nM | 146 nM | 148 nM | 119 nM
25 | CAACCGUAACACGAUACCAGCCUAGAAGCCAGUGAUGUUGGCCUUUUUUCGGAAAUGAAAGGCCCUUGGCAGCGUGGAUGAACUG [Dibibiquus] | 468 nM | 304 nM | 380 nM | 462 nM | 338 nM
26 | UGGCGGCAAGGGUUAUUGGAAAGUAUUCGACGAGGACCGGUACGGCCGCCACUCGAACACCAGUGAUGUUGGUCUGGCUUAAGCC [Exclusion Tryptophan A GF 21] | 276 nM | 245 nM | 285 nM | 275 nM | 279 nM
27 | GGGAGGAACUGAGGAUAUUCGAAGAAAUAUAGUGAUGUUAUGUAAGGAGGAGGAGGGAGGGAGGAAGGAGAAGGCAGAAGAGGAG [ExFMNB.A] | 428 nM | 415 nM | 500 nM | 294 nM | 433 nM
28 | UGUAUGUGAUUUGAUACCAGACCAGGUGGAGGAAUCUGAGUGAUGUUCAGGUAGGUUCUGGUCCCUUGGCAGCAAAUCGCAUACU [KL-SSTheoB19] | 166 nM | 133 nM | 168 nM | 150 nM | 160 nM
29 | AAGCAGUCAGAGAGUGAUGUUCUCAAAUAACGAGGACCGGUACGGCCGCCACUCGAAGACUGCAAGUCCUACGAAAAGUAGGACA [Omei inspired 9] | 78.7 nM | 59.5 nM | 58.3 nM | 136 nM | 74.4 nM
30 | AAUAUAGUGAUGUUAUAUAAGAAGGAGUUACGAGGACCGGUACGGCCGCCACUCGAAACGAGUGAGGGUUUGGGAGAUUGGGCCC [SSTryptA.J] | 493 nM | 310 nM | 451 nM | 322 nM | 384 nM
31 | GGAUAGGAUAGAGGAUAUGGUAUAGGCAAGAAUAACUUGUCAUGUAAAUCCAUGAGGAGUGAUGUUCCAGAAGGCUGUCCUAUCG [MatMod 9 - Jieux - Exclusion - FMN B] | 620 nM | 179 nM | 231 nM | 168 nM | 123 nM
32 | GGCGGCCGCGCGUAAGCGCGGCCGGCCGAUACCAGCGCGACGGCGCGCCCUUGGCAGCGGCGCCGAGUGAUGUUCGGCCUGCCGG [#2 Same State - Theophylline A Attempt #17 (HarryS)] | 376 nM | 381 nM | 441 nM | 465 nM | 596 nM
33 | GUAAGACCGGGACUCCAGUGAUGUUGGAGGCAGGAUAUCCAGUCGAGGAGAAGGGCCAGGGAUAUCGAGCUGCUCGGUUUGUAGU [Argeis] | 81.9 nM | 69.5 nM | 93.6 nM | 78.9 nM | 56.2 nM
34 | GUAGCACUCGGUAGUGAUGUUAUCGAGGACAAGGAUAUCAUCUCAAUGAGAAGGUGUCCUUGAUAACAGCUACGGGAAUAUCCCA [Omei KL FMN A Exc D v4] | 386 nM | 117 nM | 134 nM | 120 nM | 127 nM
35 | UUGGGCAACCGAGAUACCAGUCAAAUCGCUCUGGAGUGAUGUUCCGGAACAUGCGGAGAAGACCCUUGGCAGCUCAAGACGGACA [Exclusion Theophylline B GF 1] | 111 nM | 107 nM | 107 nM | 113 nM | 91.2 nM
36 | UAUAGAGUGACGGCCGCCACUAUUGUGAUUUAAUUGUUAGAGUGAUGUUUUGAUGUUUGAUUUUGUAGGACCGGGUUAUAUGUUA [wwwzmullin] | 1090 nM | 720 nM | 890 nM | 795 nM | 718 nM
37 | UAUCUAUGCUCGGCCGCCACUAGGACCGGGAGGUAACUAGUGAUGUUAGUAUCUUCGGCCGCCACUAGGACCGGGAGUGUAGAUA [KL-SSTryp-B17 #DoubleAptamer] | 115 nM | 95.2 nM | 92.7 nM | 95.5 nM | 74.6 nM
38 | GGCAGUGAUGUUGCCAGUGGCAGAUGCGAAGGAGCGCAGUGAGAUGCAGGUAGGUCGCGCAUUGAAAUUGCUGUCACUAAAAUGC [#2] | 363 nM | 369 nM | 371 nM | 276 nM | 234 nM
39 | UGUGUUUACCUGACUCAGUGAUGUUGAGAAGGAGCGUGAGAAAGCACAGGUAGGUCGCUCAACCUAAAUUCAGGUGAGCACUAAA | 241 nM | 274 nM | 238 nM | 302 nM | 204 nM
40 | GGGUGGCAGGCGGCCGCCACUCUGAGCACCCACUGAGUGAUGUUCGUGGCGUAAGCCUGUUCGUAGAGGACCGGGUUUGUUGUUC [Exclusion Tryptophan B GF 15] | 413 nM | 162 nM | 300 nM | 281 nM | 230 nM
41 | GUAUCGCUAGGAGGAUAUUUCAAAUAAUAAAUAAAUGGUUAUACGGAGUGAUGUUCCGAUUUACGGAAAGAAGGCCUAGUGAUAC [FMN B 3] | 118 nM | 144 nM | 155 nM | 153 nM | 147 nM
42 | UCACUACACUGAAGGAGCGUGAGGAGACUAGUGAUGUUGGUCAGAUUCUAUGAUCGUAACUCACAGGUAGGUCGCAGUGUAGUGU [Arg B SS t7] | 514 nM | 341 nM | 518 nM | 378 nM | 476 nM
43 | GAAAGAAAGAAUGAUACCAGACACCCGAGUGAUGUUCGGAGCAGAGUGAUGUUCUUAUAAGUCCCUUGGCAGCAUAAAAGAAAAG [whbob_SS_Theo_B_sa82] | 192 nM | 171 nM | 196 nM | 186 nM | 153 nM
44 | AAAUAAAGCAGUCACCCAGUGAUGUUGGAAGGAGCGUGCGAAAGCACAGGUAGGUCGCCAAAACCUAAUACUGGCUGCUAAAUAA [#03 K4 Arginine A Exclusion] | 242 nM | 357 nM | 285 nM | 307 nM | 177 nM
